Test results reported in PMC7708434 (Biochimica et biophysica acta. General subjects, 2020).
Like-named read-outs stand apart in the source and are kept apart here.

B1: 4-hydroxy-tetrahydrodipicolinate reductase (DapB) from Vibrio vulnificus strain CMCP6 (enzyme, UniProt Q8DEM0 1-269, looked up)
chain: MVRIAVAGAAGRMGRNLVKAAHHNPVAKVAAGSERPESSLVGVDLGELCGEGKFDVVVCDDLAKQIDQFDVIIDFTAPASTLNNLALCQQYGKSIVIGTTGFTEEQREQIDLVAQQVPVVMAPNYSVGVNLVFKLLEKAAKVMGDYCDIEIVEAHHRHKVDAPSGTAIGMGEAIAGAMGNKLSDVAVYAREGITGERTKDEIGFATIRAGDIVGEHTAMFADIGERVEITHKATDRMTFANGAVKAAVWLHEKPAGFYTMTDVLGLNDL
B2: 4-hydroxy-tetrahydrodipicolinate reductase (DapB) from Mycobacterium tuberculosis HKBS1 (enzyme)
chain: MRVGVLGAKGKVGATMVRAVAAADDLTLSAELDAGDPLSLLTDGNTEVVIDFTHPDVVMGNLEFLIDNGIHAVVGTTGFTAERFQQVESWLVAKPNTSVLIAPNFAIGAVLSMHFAKQAARFFDSAEVIELHHPHKADAPSGTAARTAKLIAEARKGLPPNPDATSTSLPGARGADVDGIPVHAVRLAGLVAHQEVLFGTEGETLTIRHDSLDRTSFVPGVLLAVRRIAERPGLTVGLEPLLDLH

Experiments:
crystal structure [1] = target: the molecule itself; test: crystal structure
crystal structure [2] = target: the molecule itself; test: crystal structure; remark: listed apart in the source

Protein | stoichiometry N (crystal structure [1]) | stoichiometry N (crystal structure [2])
B1 | 4 | 
B2 |  | 4
